Reference: patent US20140302028A1

Legend:
[1] = biological target: recombinant human FcRn (Sino Biological Inc.) (human) (UniProt P55899); experiment: SPR (Biacore T100), human FcRn immobilised, pH 6, two-state model
[2] = biological target: recombinant mouse FcRn (R&D Systems) (mouse) (UniProt Q61559); experiment: SPR (Biacore T100), mouse FcRn immobilised, pH 6, two-state model
[3] = biological target: recombinant human FcRn (Sino Biological Inc.) (human) (UniProt P55899); experiment: SPR (Biacore T100), human FcRn immobilised, pH 6, two-state model, complex formation
[4] = biological target: recombinant mouse FcRn (R&D Systems) (mouse) (UniProt Q61559); experiment: SPR (Biacore T100), mouse FcRn immobilised, pH 6, two-state model, complex formation
[5] = biological target: recombinant human FcRn (Sino Biological Inc.) (human) (UniProt P55899); experiment: SPR (Biacore T100), human FcRn immobilised, pH 6, two-state model, complex stabilization
[6] = biological target: recombinant mouse FcRn (R&D Systems) (mouse) (UniProt Q61559); experiment: SPR (Biacore T100), mouse FcRn immobilised, pH 6, two-state model, complex stabilization

UniProt Q61559, sequence (Q61559 22-297 limits assumed, chain 1 of 2): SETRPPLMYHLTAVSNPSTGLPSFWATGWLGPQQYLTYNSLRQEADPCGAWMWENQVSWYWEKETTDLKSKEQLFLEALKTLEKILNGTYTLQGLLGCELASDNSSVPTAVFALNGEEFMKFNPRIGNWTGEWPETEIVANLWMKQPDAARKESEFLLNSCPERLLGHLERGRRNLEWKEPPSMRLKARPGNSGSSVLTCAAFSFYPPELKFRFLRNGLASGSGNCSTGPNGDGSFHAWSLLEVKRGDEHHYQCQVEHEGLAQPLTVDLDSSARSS
UniProt Q61559, sequence (chain, as listed by the source limits assumed, chain 2 of 2): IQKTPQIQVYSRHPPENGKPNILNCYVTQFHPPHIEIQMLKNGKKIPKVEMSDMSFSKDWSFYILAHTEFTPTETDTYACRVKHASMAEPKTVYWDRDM
UniProt P55899, sequence (P55899 24-297 limits assumed, chain 1 of 2): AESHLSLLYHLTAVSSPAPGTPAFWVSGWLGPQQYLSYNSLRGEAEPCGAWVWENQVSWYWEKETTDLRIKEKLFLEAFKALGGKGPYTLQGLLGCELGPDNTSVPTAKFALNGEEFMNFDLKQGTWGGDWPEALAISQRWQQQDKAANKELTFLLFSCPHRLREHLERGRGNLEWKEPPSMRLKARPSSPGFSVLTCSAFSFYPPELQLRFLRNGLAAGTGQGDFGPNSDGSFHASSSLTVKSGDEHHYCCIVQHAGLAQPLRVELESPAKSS
UniProt P55899, sequence (chain, as listed by the source limits assumed, chain 2 of 2): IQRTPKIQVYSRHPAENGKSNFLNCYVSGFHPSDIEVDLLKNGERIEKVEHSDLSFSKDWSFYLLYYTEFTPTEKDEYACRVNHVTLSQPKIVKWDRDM

How did the Kd [1] turn out when HUMIRA ® (antibody) was run?
Its Kd is 34 nM.

What about the Kd [2] of the same substance?
The Kd was 6.66 nM.

What about the koff [3] of the same substance?
Its koff is 0.313 s⁻¹.

What about the kon [3] of the same substance?
Its kon is 5.99e+06 M⁻¹ s⁻¹.

What about the koff [4] of the same substance?
Its koff is 0.0153 s⁻¹.

And the kon [4]?
The kon was 159000 M⁻¹ s⁻¹.

What about the kd (Complex Stabilization) [5] of the same substance?
The kd (Complex Stabilization) was 0.00155 s⁻¹.

And the kd (Complex Stabilization) [6]?
The kd (Complex Stabilization) was 0.000107 s⁻¹.
